Columns and labels:
[1] = target: filamentous actin (F-actin) (rabbit) (UniProt P68135); experiment: co-sedimentation
[2] = target: filamentous actin (F-actin) (rabbit) (UniProt P68135); experiment: single-molecule TIRF microscopy

Sequence of utrophin actin-binding domain (CH1–CH2), wild type (P46939 31-256): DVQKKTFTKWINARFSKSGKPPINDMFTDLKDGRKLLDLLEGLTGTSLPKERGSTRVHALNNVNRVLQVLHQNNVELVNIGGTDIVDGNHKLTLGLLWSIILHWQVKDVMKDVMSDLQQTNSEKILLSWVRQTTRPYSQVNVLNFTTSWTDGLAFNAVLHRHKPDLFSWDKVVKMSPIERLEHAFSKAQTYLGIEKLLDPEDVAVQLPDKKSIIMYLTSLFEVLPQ
Sequence of plectin actin-binding domain (CH1–CH2) (domain or fragment) (Q15149 60-293): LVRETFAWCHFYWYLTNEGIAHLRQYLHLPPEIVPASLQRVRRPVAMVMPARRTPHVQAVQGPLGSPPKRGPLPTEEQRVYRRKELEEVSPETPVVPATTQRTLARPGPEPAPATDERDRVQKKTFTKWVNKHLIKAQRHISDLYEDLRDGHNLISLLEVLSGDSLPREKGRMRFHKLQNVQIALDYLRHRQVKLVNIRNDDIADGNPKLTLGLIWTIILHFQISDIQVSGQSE
Sequence of utrophin actin-binding domain with residues 1–27 truncated (Δ-n-term) (P46939 28-3433, stated change not applied): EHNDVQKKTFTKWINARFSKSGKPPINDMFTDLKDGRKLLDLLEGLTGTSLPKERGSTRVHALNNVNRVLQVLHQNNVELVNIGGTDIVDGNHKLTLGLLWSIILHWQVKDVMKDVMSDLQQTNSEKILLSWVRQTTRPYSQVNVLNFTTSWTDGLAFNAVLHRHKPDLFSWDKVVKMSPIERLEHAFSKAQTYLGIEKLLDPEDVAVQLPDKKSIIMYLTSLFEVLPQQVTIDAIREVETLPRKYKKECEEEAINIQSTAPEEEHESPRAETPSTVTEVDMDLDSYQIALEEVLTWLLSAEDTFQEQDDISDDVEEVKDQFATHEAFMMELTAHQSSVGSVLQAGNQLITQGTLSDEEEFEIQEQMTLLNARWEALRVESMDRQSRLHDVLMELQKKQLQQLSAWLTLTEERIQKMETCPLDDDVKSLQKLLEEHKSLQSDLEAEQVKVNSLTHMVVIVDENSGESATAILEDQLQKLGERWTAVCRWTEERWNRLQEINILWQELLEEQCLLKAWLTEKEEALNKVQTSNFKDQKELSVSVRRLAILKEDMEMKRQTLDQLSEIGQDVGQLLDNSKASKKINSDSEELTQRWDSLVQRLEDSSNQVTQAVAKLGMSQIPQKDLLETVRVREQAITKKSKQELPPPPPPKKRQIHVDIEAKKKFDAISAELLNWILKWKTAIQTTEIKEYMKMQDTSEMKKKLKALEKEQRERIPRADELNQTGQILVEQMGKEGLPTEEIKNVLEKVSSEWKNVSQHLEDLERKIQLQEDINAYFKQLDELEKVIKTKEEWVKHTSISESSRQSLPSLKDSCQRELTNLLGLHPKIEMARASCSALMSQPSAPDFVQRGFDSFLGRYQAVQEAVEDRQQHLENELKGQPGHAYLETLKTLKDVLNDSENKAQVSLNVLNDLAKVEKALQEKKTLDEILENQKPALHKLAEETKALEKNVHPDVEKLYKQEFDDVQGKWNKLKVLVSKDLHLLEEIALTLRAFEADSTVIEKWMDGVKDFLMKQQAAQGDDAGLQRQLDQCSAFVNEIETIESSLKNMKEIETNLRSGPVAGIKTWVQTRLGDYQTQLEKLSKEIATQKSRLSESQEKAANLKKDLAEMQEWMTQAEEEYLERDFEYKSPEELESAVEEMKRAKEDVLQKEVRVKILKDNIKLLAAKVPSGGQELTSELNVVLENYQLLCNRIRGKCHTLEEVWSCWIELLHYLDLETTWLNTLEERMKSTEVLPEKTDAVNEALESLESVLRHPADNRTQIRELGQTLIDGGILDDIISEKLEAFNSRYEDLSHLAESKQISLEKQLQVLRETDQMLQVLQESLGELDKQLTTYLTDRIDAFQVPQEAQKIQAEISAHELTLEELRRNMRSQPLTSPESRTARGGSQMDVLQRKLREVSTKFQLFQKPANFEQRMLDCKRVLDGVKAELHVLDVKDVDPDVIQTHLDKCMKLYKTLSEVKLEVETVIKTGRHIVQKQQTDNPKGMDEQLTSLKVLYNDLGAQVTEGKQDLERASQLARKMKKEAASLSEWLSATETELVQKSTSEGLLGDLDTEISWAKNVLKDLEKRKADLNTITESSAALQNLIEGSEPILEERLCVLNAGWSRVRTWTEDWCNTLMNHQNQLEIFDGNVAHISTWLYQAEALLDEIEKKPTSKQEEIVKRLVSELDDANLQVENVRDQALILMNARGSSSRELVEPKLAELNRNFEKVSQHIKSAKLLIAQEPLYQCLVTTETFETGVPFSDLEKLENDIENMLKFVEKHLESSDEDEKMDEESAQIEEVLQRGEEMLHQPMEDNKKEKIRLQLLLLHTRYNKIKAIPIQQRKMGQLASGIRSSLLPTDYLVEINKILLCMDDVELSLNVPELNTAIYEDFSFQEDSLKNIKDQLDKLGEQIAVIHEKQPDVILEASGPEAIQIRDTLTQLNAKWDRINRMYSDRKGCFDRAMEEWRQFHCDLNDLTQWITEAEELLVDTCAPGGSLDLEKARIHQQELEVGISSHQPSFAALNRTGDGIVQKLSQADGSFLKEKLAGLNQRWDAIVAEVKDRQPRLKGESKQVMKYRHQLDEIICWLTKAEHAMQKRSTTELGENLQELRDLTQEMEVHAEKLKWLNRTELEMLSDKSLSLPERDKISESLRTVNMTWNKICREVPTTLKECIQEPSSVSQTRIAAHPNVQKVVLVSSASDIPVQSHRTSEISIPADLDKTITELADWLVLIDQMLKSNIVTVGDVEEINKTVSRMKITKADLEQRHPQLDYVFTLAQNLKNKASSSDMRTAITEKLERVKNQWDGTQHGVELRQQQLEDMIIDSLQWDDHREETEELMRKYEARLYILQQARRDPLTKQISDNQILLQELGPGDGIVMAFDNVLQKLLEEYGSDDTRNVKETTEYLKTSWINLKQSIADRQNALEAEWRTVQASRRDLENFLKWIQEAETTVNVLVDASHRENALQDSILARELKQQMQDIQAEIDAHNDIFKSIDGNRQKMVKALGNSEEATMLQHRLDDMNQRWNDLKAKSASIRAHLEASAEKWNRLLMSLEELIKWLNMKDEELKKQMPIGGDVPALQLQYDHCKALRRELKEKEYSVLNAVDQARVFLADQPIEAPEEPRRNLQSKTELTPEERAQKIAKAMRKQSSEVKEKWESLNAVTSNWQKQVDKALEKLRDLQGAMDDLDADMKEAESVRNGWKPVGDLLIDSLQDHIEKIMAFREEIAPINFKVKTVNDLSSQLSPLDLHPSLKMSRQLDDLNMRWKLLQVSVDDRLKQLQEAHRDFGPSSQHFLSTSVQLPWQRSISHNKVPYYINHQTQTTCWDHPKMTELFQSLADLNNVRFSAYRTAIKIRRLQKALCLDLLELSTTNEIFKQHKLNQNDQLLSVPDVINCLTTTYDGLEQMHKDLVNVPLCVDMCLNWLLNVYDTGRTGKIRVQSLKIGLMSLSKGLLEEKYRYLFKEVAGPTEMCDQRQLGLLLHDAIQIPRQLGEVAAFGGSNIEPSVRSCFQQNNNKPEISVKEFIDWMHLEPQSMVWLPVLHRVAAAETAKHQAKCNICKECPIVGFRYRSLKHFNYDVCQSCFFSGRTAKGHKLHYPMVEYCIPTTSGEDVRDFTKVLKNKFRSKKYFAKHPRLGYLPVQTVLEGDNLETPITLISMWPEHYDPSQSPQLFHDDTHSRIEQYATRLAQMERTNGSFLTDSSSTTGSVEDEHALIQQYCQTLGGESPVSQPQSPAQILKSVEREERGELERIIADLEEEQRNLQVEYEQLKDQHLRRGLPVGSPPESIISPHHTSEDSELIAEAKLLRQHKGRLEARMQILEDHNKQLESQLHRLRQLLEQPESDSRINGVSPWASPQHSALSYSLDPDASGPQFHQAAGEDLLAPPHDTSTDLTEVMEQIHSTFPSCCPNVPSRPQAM

Substance | Kd [1] [µM] | mean dwell time of binding events [2] [s]
plectin actin-binding domain (CH1–CH2) (domain or fragment) | 120 | –
plectin actin-binding domain K278E (domain or fragment) | 45.1 | –
utrophin actin-binding domain (CH1–CH2), wild type (from UniProt P46939 31-256) (domain or fragment) | 13.8 | 0.96
utrophin actin-binding domain Q33A T36A (from UniProt P46939 31-256) (domain or fragment) | 0.4 | 8.49
utrophin actin-binding domain S158C conjugated with maleimide-750Da PEG (from UniProt P46939 31-256) (domain or fragment) | 53.8 | –
utrophin actin-binding domain S158C, unconjugated (from UniProt P46939 31-256) (domain or fragment) | 12.5 | –
utrophin actin-binding domain with residues 1–27 truncated (Δ-n-term) (from UniProt P46939 28-3433) (domain or fragment) | 31.4 | –

— paper PMC6938246
